Experiment [1] concerns the target T1, FcRn (analyte in the Biacore T200 study) (human, UniProt P55899 24-297; P61769 21-119, limits assumed).
T1 construct: also called human FcRn
Description: SPR Biacore T200, antibody amine-coupled to CM5, FcRn analyte, 1:1 model; pH not stated. On the procedure: (§1) Antibodies were immobilized onto a Series S CM5 sensor chip surface using standard amine coupling chemistry and analyte (FcRn) flowed over the surface. A 2-fold dilution range was selected from 50-0.01 nM FcRn. The association phase of FcRn analyte was monitored for 450 seconds, and dissociation was initially measured for either 250 or 2500 seconds, at 40 μl/min Fc1 was a reference channel and was subtracted from other flow cells to correct for non-specific binding. […] Kinetic values are based on a 1:1 binding model (Table 5).
(In general: In SPR one partner is held on a chip, and binding of the other changes the refractive index at the surface.)

The target of experiment [2] is T2, monomeric His-tagged hFcRn (human, UniProt P55899 24-297; P61769 21-119, limits assumed).
T2 construct: also called human FcRn; not shown: His tag
T2 sequence (P55899 24-297 limits assumed, chain 1 of 2): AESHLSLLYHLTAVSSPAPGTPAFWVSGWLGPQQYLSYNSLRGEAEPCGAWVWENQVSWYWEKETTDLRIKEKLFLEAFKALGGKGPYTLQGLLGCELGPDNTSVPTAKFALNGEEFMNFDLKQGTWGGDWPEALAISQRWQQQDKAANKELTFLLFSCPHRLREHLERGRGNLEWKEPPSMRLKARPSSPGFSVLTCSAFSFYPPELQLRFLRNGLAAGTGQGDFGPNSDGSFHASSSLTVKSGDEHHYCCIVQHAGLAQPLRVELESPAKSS
T2 sequence (P61769 21-119 limits assumed, chain 2 of 2): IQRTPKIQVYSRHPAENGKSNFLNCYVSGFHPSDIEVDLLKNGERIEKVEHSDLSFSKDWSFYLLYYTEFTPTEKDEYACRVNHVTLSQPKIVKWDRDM
Description: SPR Biacore 3000, antibody amine-coupled to CM5, His-tagged hFcRn analyte, pH 6.0, 25 C, 1:1 Langmuir. How it is done:
(§2) The coupling was performed by injecting 2 μg/ml of each protein into 10 mM sodium acetate, pH 4.5 (GE Healthcare), using the amine coupling kit (GE Healthcare). HBS-P buffer pH 7.4 (0.01 M HEPES, 0.15 M NaCl, 0.005% surfactant P20) or phosphate buffer pH 6.0 (67 mM phosphate buffer, 0.15 M NaCl, 0.005% Tween 20) were used as running buffer and dilution buffer. […] All SPR experiments were conducted at 25° C. with a flow rate of 40 μl/min Binding data were zero-adjusted, and the reference cell value subtracted. The Langmuir 1:1 ligand binding model provided by the BIAevaluation software (version 4.1) was used to determine the binding kinetics. The closeness of the fit is described by the statistical value χ².

Experiment [3] addresses T3, recombinant human FcRn (Sino Biological Inc. Cat. No. CT009-H08H) (human, UniProt P55899 24-297; P61769 21-119).
T3 construct: also called immobilized FcRn
Description: competition ELISA, pH 7.4: test IgG4 (stable NS0) titrated against fixed biotinylated murine parent antibody on recombinant human FcRn; streptavidin-HRP/TMB, OD450 [bottom panel]. How it is done: (§3) The IgG4 antibodies were tested for antigen binding in a competition ELISA at pH 6.0 and pH 7.4. A Nunc Immuno MaxiSorp 96 well flat bottom microtitre plate (Fisher, cat. no. DIS-971-030J) was pre-coated with 1 μg/ml of an FcRn antibody specific for an IgG-binding epitope distinct from the albumin-binding region overnight at pH 7.4. The following day, 1 μg/ml recombinant human FcRn (Sino Biological Inc. cat. no. CT009-H08H) diluted in PBS pH 7.4 was added to the wells and incubated for 1 hour at 37° C. After washing the plates 3× with PBST pH 7.4, the plates were blocked with PBSM pH 7.4 for 1 hour at 37° C. From this point onwards, all wash and incubation steps were performed at the chosen assay pH (pH 6.0 or 7.4). […] The reaction was stopped with 3 M HCl, absorbance read at 450 nm on a Dynex Technologies MRX TC II plate reader and the binding curves plotted.
(§4) NS0 produced humanized affinity matured IgGs were used in all assays other than G50_C10/Vκ3), which was purified from transiently expressing HEK cells.
In general terms: An ELISA detects its analyte on a solid surface through an enzyme-linked reagent.

In experiment [4] the target is T3, recombinant human FcRn (Sino Biological …). Description: competition ELISA, pH 6.0: test IgG4 (stable NS0) titrated against fixed biotinylated murine parent antibody on recombinant human FcRn; streptavidin-HRP/TMB, OD450 [bottom panel]. How it is done: as §3, §4
Experiment [5] deals with T2, monomeric His-tagged hFcRn. In words: SPR Biacore 3000, antibody amine-coupled to CM5, His-tagged hFcRn analyte, pH 7.4, 25 C, 1:1 Langmuir. How it is done: as §2
The kinetic rate constants were obtained using a simple first-order (1:1) Langmuir bimolecular interaction model. The kinetic values represent the average of duplicates. The χ² (chi-square) values represent the fit to the binding model used.

The target of experiment [6] is T1, FcRn (analyte in the Biacore T200 study). Description: SPR Biacore T200, antibody amine-coupled to CM5, FcRn analyte, 1:1 model; chip with the three best variants (repeat run, dissociation 4500 s per paragraph 156); pH not stated. On the procedure: as §1
In experiment [7] the target is T3, recombinant human FcRn (Sino Biological …). In words: competition ELISA, pH 6.0: test IgG4 (stable NS0) titrated against fixed biotinylated murine parent antibody on recombinant human FcRn; streptavidin-HRP/TMB, OD450 [middle panel]. On the procedure:
as §3, §4

Experiment [8] has the same target. In words: competition ELISA, pH 7.4: test IgG4 (stable NS0) titrated against fixed biotinylated murine parent antibody on recombinant human FcRn; streptavidin-HRP/TMB, OD450 [middle panel]. On the procedure:
as §3, §4

Experiment [9] addresses T1, FcRn (analyte in the Biacore T200 study). Description: SPR Biacore T200, antibody amine-coupled to CM5, FcRn analyte, 1:1 model; chip with the three best variants (repeat run, dissociation 4500 s per paragraph 156); pH not stated; repeat run of the three best variants, dissociation 4500 s. On the procedure:
as §1

Experiment [10] addresses T3, recombinant human FcRn (Sino Biological …). Description: competition ELISA, pH 7.4: test IgG4 (transient HEK) titrated against fixed biotinylated murine parent antibody on recombinant human FcRn; streptavidin-HRP/TMB, OD450. How it is done:
as §3

Experiment [11] shares this target. Description: competition ELISA, pH 7.4: test IgG4 (stable NS0) titrated against fixed biotinylated murine parent antibody on recombinant human FcRn; streptavidin-HRP/TMB, OD450 [top panel]. How it is done: as §3, §4
Experiment [12] shares this target. Description: competition ELISA, pH 6.0: test IgG4 (stable NS0) titrated against fixed biotinylated murine parent antibody on recombinant human FcRn; streptavidin-HRP/TMB, OD450 [top panel]. How it is done:
as §3, §4

The target is the same in experiment [13]. Description: competition ELISA, pH 6.0; competitor biotinylated parent murine antibody; captured recombinant human FcRn; HEK-expressed IgG4. How it is done:
as §3

Experiment [14] has as its target T1, FcRn (analyte in the Biacore T200 study). Description: SPR Biacore T200; KD of humanized parent VH1/Vκ1 divided by KD of the test antibody on the same chip. How it is done: as §1
The target in experiment [15] is T3, recombinant human FcRn (Sino Biological …). Description: competition ELISA, pH 7.4; competitor biotinylated parent murine antibody; captured recombinant human FcRn; NS0-expressed IgG4. How it is done:
as §3, §4

Experiment [16] shares this target. In words: competition ELISA, pH 7.4; competitor biotinylated parent murine antibody; captured recombinant human FcRn; HEK-expressed IgG4. On the procedure:
as §3

Experiment [17] has the same target. In words: competition ELISA, pH 6.0; competitor biotinylated parent murine antibody; captured recombinant human FcRn; NS0-expressed IgG4. On the procedure:
as §3, §4

Residue numbers refer to the chain shown, from its start. Names may count otherwise.

T3 sequence (P55899 24-297 limits assumed, chain 1 of 2): as the sequence (P55899 24-297 limits assumed, chain 1 of 2) above
T3 sequence (P61769 21-119 limits assumed, chain 2 of 2): as the sequence (P61769 21-119 limits assumed, chain 2 of 2) above
T1 sequence (P55899 24-297 limits assumed, chain 1 of 2): as the sequence (P55899 24-297 limits assumed, chain 1 of 2) above
T1 sequence (P61769 21-119 limits assumed, chain 2 of 2): as the sequence (P61769 21-119 limits assumed, chain 2 of 2) above

B1: G49_H9.3/Vκ3 (antibody, V domains shown)
VH: EVQLVESGGGLVKPGGSLKLSCAASGFTFSDYGMHWVRQAPGKGLEWVAYISSGSSTIYYADTVKGRFTISRDNAKNTLYLQMNSLRAEDTAMYYCARFDSLSTVGDYWGQGTSVTVSS
VL: DIVMTQSPDSLSASVGDRVTITCKASQSVSNDVAWYQQKPGQPPKLLIYYASNRYTGVPDRFSGSGYGTDFTLTISSLQAEDVAVYFCQQDYSSLTFGQGTKLEIK
notes: Bivalent IgG4 with S241P, human kappa; also called SYNT002-21; G49_H9.3 VH1
A word on the Kd: it is the constant that tells how readily two partners part at equilibrium. High values mean a looser complex, low ones a tighter complex. Take B1: the Kd in experiment [1] is 1.11 nM; in experiment [2], 1.7 nM. The “IC50 (read off the curve)” value was roughly 0.5 mg/L in [3] and roughly 0.2 mg/L in experiment [4].

B2: G15_C3/Vκ3 (antibody, V domains shown)
VH: B1 VH with F99G, D100E, L102T, S103T
VL: B1 VL
notes: Bivalent IgG4 with S241P, human kappa; also called SYNT002-3; G15_C3 VH1
As for B2, the Kd in experiment [2] was 0.7 nM; in [5], 7.8 nM; in experiment [6] it was 0.39 nM. The “IC50 (read off the curve)” value in [7] is roughly 0.3 mg/L; in experiment [8] it was roughly 0.5 mg/L.

B3: G47_B10/Vκ3 (antibody, V domains shown)
VH: B1 VH with F99A, D100E, L102T, S103T
VL: B1 VL
notes: Bivalent IgG4 with S241P, human kappa; also called SYNT002-8; G47_B10VH1_Vκ3
For the molecule B3, the Kd is 0.24 nM in experiment [9], 0.33 nM in experiment [1], 0.6 nM in [2] and 4 nM in [5]. The “IC50 (read off the curve)” value in experiment [10] was roughly 0.2 mg/L; in [11], roughly 0.5 mg/L; in experiment [12] it was roughly 0.3 mg/L.

B4: G52_G9/Vκ3 (antibody, V domains shown)
VH: B1 VH with S101T, L102P
VL: B1 VL
notes: Bivalent IgG4 with S241P, human kappa; also called G52_G9 VH1
B4 had an equilibrium dissociation constant (Kd) in experiment [1] of 1.99 nM.

B5: G47_H6/Vκ3 (antibody, IgG4, V domains shown)
VH: B1 VH with D100S
VL: B1 VL
notes: IgG4 with S241P, human kappa; also called G47_H6 VH1
The term koff denotes a measure of how fast the partners let go of each other. Lower therefore signals slow dissociation. One may read the kon as a measure of how fast the partners come together. Lower therefore signals slow association. B5 gave a Kd in [1] of 2.09 nM. In experiment [1], this molecule displayed a koff of 0.000814 s⁻¹. The molecule further showed a kon in experiment [1] of 389000 M⁻¹ s⁻¹. Moreover, the “Average relative IC50 (relative to humanized parent)” value in experiment [13] was 0.8; in [15], 0.89; in experiment [16], 0.7; in [17], 0.84. Further, the “Fold difference in KD” value in [14] was found to be 1.2 fold.

B6: G49_H9.5/Vκ3 (antibody, V domains shown)
VH: B1 VH with F99L, D100E, S101A, L102V, T104A
VL: B1 VL
notes: Bivalent IgG4 with S241P, human kappa; also called G49_H9.5 VH1
As to B6, in [1], the Kd was 1.21 nM. In addition, the “Average relative IC50 (relative to humanized parent)” value in experiment [13] was determined as 0.8; in experiment [15] it was 0.87; in experiment [17], 0.8.

B7: G54_D11/Vκ3 (antibody, V domains shown)
VH: B1 VH with S101T, L102P, S103A
VL: B1 VL
notes: Bivalent IgG4 with S241P, human kappa; also called SYNT002-17; G54_D11 VH1
In the case of B7, the results for the Kd in experiment [1] and in experiment [5] were 3.71 nM and 34 nM, respectively. For the same molecule, the “IC50 (read off the curve)” value in experiment [4] was roughly 0.3 mg/L.

The record behind these values is patent US20190135915A1 (SYNTIMMUNE, published 2019).
